Assay [1] concerns the target T1, CTLA-4 expressed on the cell surface of CHO cells (Homo sapiens (Human), UniProt P16410 36-223).
T1 construct: also called CTLA-4 with its natural structure
T1 sequence: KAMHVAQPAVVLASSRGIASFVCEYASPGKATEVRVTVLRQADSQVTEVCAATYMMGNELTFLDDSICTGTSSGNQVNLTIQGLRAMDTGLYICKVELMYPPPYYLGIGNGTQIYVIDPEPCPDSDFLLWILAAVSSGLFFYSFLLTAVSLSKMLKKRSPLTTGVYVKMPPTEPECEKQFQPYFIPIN
Description: FACS on CHO cells expressing CTLA-4, synthetic peptide.

For assay [2], the target named is T2, CTLA4 of the CTLA4:B7-1[Biotinylated] Inhibitor Screening Assay Kit (BPS Bioscience) (human, UniProt P16410 37-162, limits assumed).
T2 construct: Kit protein
T2 sequence: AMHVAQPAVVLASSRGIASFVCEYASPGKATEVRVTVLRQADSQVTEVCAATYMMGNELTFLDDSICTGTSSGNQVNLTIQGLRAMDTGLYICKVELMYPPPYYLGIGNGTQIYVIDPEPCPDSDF
Kind of assay: CTLA4:B7-1[Biotinylated] Inhibitor Screening Assay Kit, synthetic peptide against biotinylated B7-1. From the text:
Inhibitor Screening Assay Kit (BPS Biosciences) as described above.

Bridges are numbered along the chain shown (N, C = ends). Where no end group is shown, it is not given here.

B1: No. #19 synthetic peptide used in FACS (peptide)
peptide: CMHPFLPIVSHHFCER
modifications: disulfide 1-14 (inferred); also: form used in FACS not given here: biotinylated or N-terminal Gly
Regarding B1, in assay [1], the response was half-maximal at 0.47 µM (EC50).

B2: Gly-clone #19: GCMHPFLPIVSHHFCER (peptide)
peptide: GCMHPFLPIVSHHFCER
modifications: disulfide 2-15 (inferred)
notes: chemically synthesised, glycine added to the N-terminus; also called synthesized peptide (Clone No. #19)
Regarding B2, half-maximal inhibition in assay [2] (IC50) required 11.5 µM.

The record behind these values is patent publication US20240092836A1 (GENEFRONTIER, published 2024).
